Residue numbers refer to the chain shown, from its start.
How the values were obtained:
[1] = biological target: T1, human gc chain mutant, KEI replaced by Ala (Domain 1 Loop EF), myc-tagged, on COS-7 cells (human, UniProt P31785 23-369); test: staining of transfected COS-7 cells, FACS
T1 construct: whole, on cells; not shown: 9 amino acid myc tag at the 5' end of the construct
T1 sequence (looked up): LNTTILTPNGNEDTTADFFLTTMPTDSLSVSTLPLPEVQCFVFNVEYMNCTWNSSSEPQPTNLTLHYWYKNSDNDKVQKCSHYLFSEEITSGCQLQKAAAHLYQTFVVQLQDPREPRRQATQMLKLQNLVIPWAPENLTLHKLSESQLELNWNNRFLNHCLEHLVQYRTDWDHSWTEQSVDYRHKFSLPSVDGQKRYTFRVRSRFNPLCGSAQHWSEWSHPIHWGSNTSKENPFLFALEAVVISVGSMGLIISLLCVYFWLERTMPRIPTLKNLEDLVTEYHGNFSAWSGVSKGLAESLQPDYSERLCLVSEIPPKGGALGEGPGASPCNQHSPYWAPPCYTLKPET
Procedure: (§1) COS-7 cells are transiently transfected with 20 ug of DNA encoding the gc chain mutant or wildtype cDNA and 180 ug of herring sperm carrier DNA. After 2-3 days, COS-7 cells are harvested and analyzed by immnunofluorescent staining with anti-gc chain mAbs. MAbs are used at 10 ug/ml in PBS-1% BSA-0.02% sodium azide and allowed 30 minutes to bind to 1×10⁶ COS-7 cells. Cells are then washed 2 times, and bound mAb is detected with PE-conjugated goat anti-mouse Fc specific antibodies. The % of positive cells staining with the anti-gc chain mAb over an irrelevant control Ig is determined for a given gc chain mutant and for wildtype gc chain. […] Data are adjusted for any differences in level of expression of a mutant vs. wildtype constructs by measuring the binding of a mAb specific for a 9 amino acid myc tag engineered at the 5′ end of each gc chain construct. […] Values reduced from 100% indicate amino acid mutations which affect mAb binding.
(§2) The value “100%” indicates no effect of mutation and lower percentages indicate greater losses in binding as a result of the sequence change.

[2] = biological target: T2, human gc chain mutant, LSE replaced by Ala (Domain 2 Loop AB), myc-tagged, on COS-7 cells (human, UniProt P31785 23-369); test: staining of transfected COS-7 cells, FACS
T2 construct: whole, on cells; not shown: 9 amino acid myc tag at the 5' end of the construct
T2 sequence (looked up): T1 sequence (looked up) with A98K, A99E, A100I, L143A, S144A, E145A
Procedure: as §1, §2

[3] = biological target: T3, human gc chain mutant, VIP replaced by Ala (interdomain residues), myc-tagged, on COS-7 cells (human, UniProt P31785 23-369); test: staining of transfected COS-7 cells, FACS
T3 construct: whole, on cells; not shown: 9 amino acid myc tag at the 5' end of the construct
T3 sequence (looked up): T1 sequence (looked up) with A98K, A99E, A100I, V130A, I131A, P132A
Procedure: as §1, §2

[4] = biological target: T4, human gc chain mutant, NDK replaced by Ala (Domain 1 Loop CC), myc-tagged, on COS-7 cells (human, UniProt P31785 23-369); test: staining of transfected COS-7 cells, FACS
T4 construct: whole, on cells; not shown: 9 amino acid myc tag at the 5' end of the construct
T4 sequence (looked up): T1 sequence (looked up) with N74A, D75A, K76A, A98K, A99E, A100I
Procedure: as §1, §2

[5] = biological target: T5, human gc chain mutant, IHL replaced by Ala (Domain 1 Loop EF), myc-tagged, on COS-7 cells (human, UniProt P31785 23-369); test: staining of transfected COS-7 cells, FACS
T5 construct: whole, on cells; not shown: 9 amino acid myc tag at the 5' end of the construct
T5 sequence (looked up): T1 sequence (looked up) with A98K, A99E, H101A, L102A
Procedure: as §1, §2

[6] = biological target: T6, human gc chain (common gamma chain of cytokine receptors) on the cell surface (human, UniProt P31785 23-369); test: cell-based or functional assay
T6 sequence (looked up): T1 sequence (looked up) with A98K, A99E, A100I

B1: CP.B8 monoclonal antibody (murine anti-human gc chain, hybridoma ATCC HB-12107) (antibody, V domains shown)
VH: LQESGPGLVAPSQSLSITCTVSGFSLTSYGVHWVRQPPGKGLEWLGVIWAGGSTNYNSALMSRLNINRDNSKSQIFLKMNSLQTDDTAIYYCAREGSTVDSMDYWGQGTTVT
VL: DIVMTQSHKFMSTSVGDSITITCKASQDVTTAVAWYQQKPGQSPKLLIYWASTRHTGVPDRFTGSGSGTDYTLTISSVQAEDLALYYCQQHYITPWTFGGGTKLEI
notes: Used unconjugated and biotin-conjugated; also called CP.B8 mAb; mAb CP.B8
% binding to mutant gc chain/wildtype gc chain [1]: 2%
% binding to mutant gc chain/wildtype gc chain [2]: 90%
% binding to mutant gc chain/wildtype gc chain [3]: 21%
% binding to mutant gc chain/wildtype gc chain [4]: 71%
% binding to mutant gc chain/wildtype gc chain [5]: 0%
inhibition of IL-2-induced T cell proliferation, 73 pM IL-2, mAb at 100 ug/ml, relative to MOPC21 [6]: 51%
inhibition of IL-2-induced T cell proliferation, 219 pM IL-2, mAb at 100 ug/ml, relative to MOPC21 [6]: 44%
